Measured values published in the domain aggregation screens of Martell et al. (2025).

Assay: soluble fraction after stress (log2 fold change); higher = more stays soluble; pooled small domains, quantitative proteomics
Conditions: stress: pH 4
Method in brief: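 Aggregation propensity here comes from the fold change in the soluble amount of each small protein domain after acid stress, measured in pooled custom libraries by high-throughput quantitative proteomics. The acid stress was pH 4. On the log2 scale, higher values mean more of the domain stayed soluble.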

Sequence | soluble fraction (log2)
HMVDIVLDILKIVAEKQPGNQFSQSILMQYQERGGLSKKQLEGLYGKAKRIPEIPQNKLATLEAIILR | -0.428
HMSFVEVTVSELKNYVNSHARIKLKSGKEFKGFILDANEEGVIIKVQLRGGTAESTISYNRIDRAAVF | -1.11
HMFEDEPSEREIRISTLLAAFLKQEDGGTAVSRERFLKENSDVAEDLQILLEMADMIQEMAGP | -0.744
HMLILTWNYPYEYPMMMRSFLQEIGISRTFLAHIKSNGELLINGRHEIVLKTLQPGDVLTMVIPPSG | -0.78
HMRDQQHNIYLLEKAKRLYEEFLGDNRHIIAAEMARFEAVLETQDAIIIQRAQQQFSEFLNRFDG | -1.2
HMARTIINLPLRNSVDESYNTTVNILQANGFKEVSYNGETVWKKGTGLLTAMQYIKIEFTDTTLVVSGWVQ | -0.11
HMGNFGDLLKILLDEKELSMGELSKKSGIDKSTISRIANNKQKPNINHLEKMAIHLNINLEELLKASGYEF | -0.857
HMKFNRPMSEILQEWENKLGTTSDAELAGLIGVVTMTINRWRKNETKPDLSALNRYDRIVNLVVNNIKQL | -0.321
HMQAESLTVVRSAELKADRFLDAATLQTLQTGQVVESLRTESGWVQVRIAGQQGWVRAMNVKGA | -0.569
HMNVWESVDLRQEQHEAKRRLILKQAALLFADRGFHETTIDQIAEALNVTKPTIYYYIESKEDLLYQVA | -0.369
HMDDDDPDQEIAQYYEKLRAMNPDEETKQKLSDEINKLSKMMYSSQEAMVSRNYLDTVFSLPWHQF | -1.37
HMAIADQPISAEHFDKLRQVLNSNTQETIASAKQHWASISNNAEFTNENVTRTLLEEMLAFIKSAS | -0.887
HMQAITVNNEGKIFLNTIPVTLEELSSKLESLKSSTPEFPVVIRGDSGSQYQGIMDVLNVVGRLGITQIGL | -1.08
HMITPKQTAETLGIATSTLRRWASEFEPFLSLRTGVKRTYTTDDITTLKRVKDLFAQGLKTEQVREAL | ≥ 0.43
HMEDEFNQIASQKNVPSFLGKGKKEVINIAKKNKIKINLSGNGYVKRQIPAPGEVISHLDEVTIFLEPG | -0.179
HMLPADETEARVLNVLGSEPLHVDEIRNQADLPIEKISATLAMMELKGMVRQVGGMNYVAMR | -0.892
HMSFEITGDELILRFVKDKGGATTEQIRKHWEASNRGGKSDNNLTNLVKSGKLLRSKDPNGPGSLYTAS | -0.749
HMTTRQREALLDYLSRHPDQPLTVREIAAGVEPDGVSLSAVYRNLAELEAAGLIRRESRPGSREAVVQYV | -0.192
HMYKNAFITYDNNLYYLGSDSKMAIGWQSIGGNTYYFRNWGGMITGKQVIDGKTYVFDEDGKLVQSPD | -0.807
HMPTLTPFDVARIENAINPRLNLETAAKLKPWIAAGYTAQETADGTGFSPDTVKKYAAIFRK | 0.146
HMPLLADLPNLLRKVLKQHPGRVVDVDLERGRQGREIYHVRVLQENGQVRGLFVDASTGELVS | 0.0524
HMATLTPLGRLQLARYHAQERATLAATAERFQVSTTTVRRWVGRYHQVVAAGGRPTTADMQDRPSRP | -0.00504
HMNTPAENFDKAVEKYKSTNSATEKDAAFKVIEDEWIKLSDEEKKERQDEYDSIFESEGDRV | 0.22
HMEDDPIYEQVMIFLLDKQITSAPELERRFKITHQRAIELLAQMEKTGIVSTMGHAGKRDVLT | -0.355
HMGTLNLSQAYREWGMAEIEANRDYYGPVRFDDIAFQMSPAGQQLQARFVASYADRLHDAIEGEL | -1.68
HMKGDYWIIDLDKNYQYAIISEPDRQYLWILSRSPNMDTQTLETLKEKIRSKGFDLTYLKQTL | -1.24

Sequence | soluble fraction (log2)
HMIDPHGSLTLDLRPRDARVEIIDSNKTYKPGVRLPMGEYAIAVSRRGYISETKRINIEYGDNRERVAL | -0.00328
HMNPETPAQQAVRKRLIVSVQFYRRLKDTPLKAVWQVAARDTLVNGYNLFLKRNIHAFNDRTLSTPSALS | 0.089
HMNTTLQLDTILRLEKNAHLLENFVRAGFTDSELGKLTDADLLQIGVPKIGDRRRLLAALAERAH | -0.29
HMTNELVNVNKLLDVMEPSIPLTALEIMTRLGIKSKETLRNSYLNPAIKLGMINLTSPLKPTSKNQMYYK | 0.111
HMGGEIGSGKNGYVAFYKGKKVDVKADSMYGAQKTAAKYFNAKKEYDVNVVLAEVDGKQYVQS | 0.151
HMPREVKLPPDLLDALEASPEAKAFFLQLSYTHQKEYAQWIEEAKQEATRQRRLEKTVQMLLEGRRT | -0.0407
HMAKDSQSADVLQAIFDGSKVLNGLALDQDMRWDLINGLVMSGRLGVEAIEAEAAKLAKLVEELEFR | -1.21
HMKVDRLISIVLVLLDKNRISAQELADMFEVSLRTIYRDIDAIELAGIPIRSTSGVGGGFEIMPNY | -1.19
HMGVARGQAQVTTRQHVVQPGETLYQISKQYGVTVAEILRYNADIEDNTVKVGQTLQIPTPLP | -0.206
HMGPEAFPVPYIVDIELDRAIYVIEQSGFIVGQKLEANDDNVPRGFVISQNPAAGTKLGPNSVVDLVISSG | -0.893
HMEFDYIVKVPDVRNKKIEDAGKILIDLGLKYTTESDYITQDLKVIDQFPLPGTEVSKGSIIDIYLEEDFK | -0.446
HMPLTRSDVKRIQLWLMAHGYDIGSPDGVFGDKSNRAANAFLSQQGRSLETVTLGKLYDILEAN | -0.941
HMYKMKDRIKKIMEMQRTTQQDFADQLKIAPATLSSIFTGRTRPTLAIVDAIKSRFPQISTDWLMFGKGDM | 0.22
HMNFNYPVIVKNSRINVSGVLSAAKLYTINGQLLQSYKGSGEFTSKTLTKGIYILQVDNARTKVLV | ≥ 0.43
HMASVGTHIKRLRAAKRMTQEELAEQLHVTRQAVSAWETGKALPDVEMLERIAAALDADVTEVIYGA | -0.24
HMSRSSQMVNFIRLLSQEKKVSVNSIFSSSVQLSDGIIVKINDFYYRVNLSLDQKTYSLVEVS | 0.12
HMPKLPIIYVLDGHVNKNALTTSGKNKVWIEHELKKHHINSIKDVLIAMTDTEGKFYYQLYD | -0.0791
HMAYWVVKNNQVSLQINRSNYQITSTARALSNGNLGDEIDVKVLQSGVIKKAVVIGKGQVELLR | 0.163
HMSAEAYLSFVKKENLRAAVVNYENNKEWLKDVPHERLLDLAVFAKVDMGEPGMSMKFNNWLLSR | -1.12
HMQKNFYQILGVDSKASPATINAAYERAKSRVIQSGLEDPDTMALLRDAWETLADPGDRAAYDESLAT | -0.0938
HMIDLPDIDIDFAKRTGVLEHITHTPARLETGKQHNTGVYFTDIPRGVDGLATMDHKRAEQLGYFKLDML | -0.172
HMRRGPLTPDDFVLDMRVVHPRYGVGRIVALSGSGESRKATVDFGGSIGRMKFVLSQSPLKP | ≥ 0.43
HMPNLAAAIGARVTIRLREASGGFRDIVGTLQRFGDGVNELLNSKGQIISFSEDEIAIWREIK | -0.326
HMNQYRKLDGDVQNQIIYILSEYPKLPATIVYQRLLDTNTIVKKDVSLSTVNRFVQKYKDSKGIT | 0.0672
HMGQAVTVPELKGLSFDEAIEKLDDAGLKYEVVDSNYVEDMKPGTVFETLPEAGSRVKPRRIVFLTINAF | -0.689
HMNNIPFIITDERLNVIQSHLVPREVLDHPDRLRRQIDRFTEENQPKTVNYWWGPEHRHIIFYGKSK | 0.281

Sequence | soluble fraction (log2)
HMGRYVIQIASFSSKNNAIEAADKLGGFVVQSGRFYRVRTGPFATRGEADAALASARRVGYRDAFIDTS | -0.233
HMVESLTDRELQILSLAAKGYTNKAIAVQLGISDRTVQNHLANTFQKLNAESRTEAVMRAVSLGLISA | -0.422
HMASQVERGAVVVTDQRIFFIGVSSEGIEVHGTKIFGMSEKAPLYSHMKGLKKGDSFQFNGLKYVIQDIY | -0.916
HMLISAESVKRRLEMIRHLILLGDYEDVTAQVIKLNPAANEYKLTPIIEELNGGKYQEALEKINSYLSKF | -0.127
HMPSTVRVPDVAETSLSEAKKTIEESGLEVGAIHKVNNDTVKKNHVIKTSPTIGSAKKEGSAIDIYVSKG | 0.201
HMKYSQAMIAQIIKHFHLPNNTVVTGEDVDAILLRSVDGGDGIYGGDVVSIWKYYKKQNDIQEIVT | -0.764
HMHNLYAPTQKEVDHARRVVEAAEAAAREGLGVVSLNGKMVDGPVIDRARLVLSRAELSGIRE | 0.274
HMGTVRFYNKERGFGFVVSDDGESVFLPAKALPDGVSDLSPGTRVDYGAALGKKGSQ | -0.203
HMQNNTIAFSKFLQEVDNGRVVQVEIQGNNINGILSDGSKFNTYSPNYPALVEKLSEKNVNIVASPV | 0.385
HMLERKFGTSLEIKSLSKFLIENNYKKNAKYLNKLIQVLGTRSENRIIKTFFKQFPEIENIFRNQL | -0.493
HMGEDPYQMLGLTRQASDEEVRLAWRKLMRENHPDSLASRGVPQEFVKRATEQVAQINAAWDRIKRERG | -0.0212
HMRLPNGYGGVTKLSGRRRKPYMVRKTIGWHIDEKTDKKVQDYVVIGYAATKSEALQMLADYNNNPFDV | 0.0101
HMEFEYTVVVPETRGKTIGEAGRILLDLELKYTSESMNIREDSKVIDQFPSPGTEVSKGSIIDLYLDE | -1.91
HMAEPIEKIIIEGNQRIEALTIQSYLLLRVGEPFNRQLMNQTLKSLYATGYFSDVAVTRVSSSLLVK | -0.0595
HMFSWRQHLDHFGFSDEIKKRLADAVFLNDDWNEIDRGVLTKEELLARFIENDPGIEKEIYMVMENIN | -1.78
HMPINPKVKQIYDTLKDGGADVGSEKEFNDYFFAKGKDGYNNRKEVFNTLREGGADAGKSYEEFAGWLGL | 0.206
HMRDTDAEVTYKLNEPFKTMGSVSVEGKVLEFAGSKWFARAAEFASNTEVYPLAKNRVRLTFTFHGLTAP | 0.0243
HMTPVKAPLPGVVTKINVSVGQQVKKGENVLVLEAMKMENNIAAEADGTVSGIAVKAGDSVLEGAVLLTI | -0.0107
HMAAELQALSVRELEVLDQLAGGASNREIAQRLYISENTVRNHVHSILTKLKLQNRTQLVGMT | -0.705
HMSWRWVPVSGAYTTSALEAAGLTRAFDDQAAAEEWLGLFFDDLLREGVGEVSLYEEDRLVYGPMSL | -2.33
HMITVEAPMPGKVLSVNVKAGDKVEAGDVLLILEAMKMQNEIMAPEDGTVSDVRVSAGDTVATGDVMVV | -0.33
HMFINTVELGRAIKRRREELGLSLRDVADVTNVSASTLSRIENGTGKPDADNIARLTGWLDMPIDRVM | 0.164
HMRRRVIGTLVMGDMSTDFKVLADGHTHRVLAAAISFHKAKPGDEVVILVPKSAPSKWAAVEHVMK | ≥ 0.43
HMGQVLEGVFRRKANGKNAFIPDGGGEPILVAERNSAHAMDGDRVKATLLARRKHHVREAQVTEILKRSSK | 0.0841
